Data published in the nanobody polyreactivity screen of Harvey et al. (2022).

Assay: yeast display, Sf9 membrane polyspecificity reagent, FACS + sequencing; frameworks hold sequencing errors
Outline: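 Nanobodies from a synthetic yeast display library (Saccharomyces cerevisiae BJ5465), induced 36–48 hours with galactose, were stained 1 hour at 4 °C with 10% biotinylated, detergent-solubilized Sf9 membrane reagent, enriched on streptavidin microbeads, then FACS-sorted. Anti-HA (expression) and streptavidin (reagent binding) fluorescence set low and high (top ~1%) gates. Polyreactivity labels come from the gate of origin. Genes were colony-PCR amplified, MiSeq 2 × 250 sequenced and filtered by CDR length.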

With “QVQLVESGGGLVQAGGSLRLSCAASGSTFYFNTMGWYRQAPGKERELVAAIRRSSGSTYYADSVKGRFTISRDNAKNTVYLQMNSLKPEDTAVYYCAADNAVTRYGRIDRDYWGQGTQVTVSS” as the sequence, how does the “polyreactivity (PSR sort gate)” value read?
The value was “low polyreactivity”.

For “QVQLVESGGGLVQAGGSLRLSCAASGSTFYFYAMGWYRQAPGKEREFVARISNRDGSTYYADSVKGRFTISRDNAKNTVYLQMNSLKPEDTAVYYCAVKQRASHYPYYSWGQGTQVTVSS”, which “polyreactivity (PSR sort gate)” value is on record?
Its value is “high polyreactivity”.

Which “polyreactivity (PSR sort gate)” value does the source give for “QVQLVESGGGLVQAGGSLRLSCAASGSTFYFYTMGWYRQAPGKERELVAAISQDGGSTYYADSVKGRFTISRDNAKNTVYLQMNSLKPEDTAVYYCAADKRGTVYLSSFWMDYWGQGTQVTVSS” here?
Its value is “low polyreactivity”.

For “QVQLVESGGGLVQAGGSLRLSCAASGSTFYFYVMGWYRQAPGKERELVAAITWSGGRTSYADSVKGRFTISRDNAKNTVYLQMNSLKPEDTAVYYCAKDLQNSSHPSRYDYWGQGTQVTVSS”, which “polyreactivity (PSR sort gate)” value is on record?
The value was “low polyreactivity”.

Which “polyreactivity (PSR sort gate)” value does the source give for “QVQLVESGGGLVQAGGSLRLSCAASGSTFYGYAMGWYRQAPGKERELVAAITLIGTSTYYADSVKCRFTISRDNAKNTVYLQMNSLKPEDTAVYYCAAEISYGYGYWGQGTQVTVSS” here?
The value was “low polyreactivity”.

Which “polyreactivity (PSR sort gate)” value does the source give for “QVQLVESGGGLVQAGGSLRLSCAASGSTFYGYAMGWYRQAPGKERELVAGITSAGSTYYADSVKGRFTISRDNAKNTVYLQMNSLKPEDTAVYYCAYHGAGYYYWGQGTQVTVSS” here?
The value was “high polyreactivity”.

For “QVQLVESGGGLVQAGGSLRLSCAASGSTFYGYGMGWYRQAPGKERELVAAITGSGDTTYYADSVKGRFTISRDNAKNSVYLQMNSLKPEDTAVYYCNARWHAEYDYWGQGTQVTVSS”, which “polyreactivity (PSR sort gate)” value is on record?
The value was “low polyreactivity”.

Which “polyreactivity (PSR sort gate)” value does the source give for “QVQLVESGGGLVQAGGSLRLSCAASGSTFYGYGMGWYRQAPGKERELVAAITGSGDTTYYADSVKGRFTISRDNAKNTVYLQMNSLKPEDTAVYYCNARWLAEYDYWGQGTQVTVSS” here?
The value was “low polyreactivity”.

For “QVQLVESGGGLVQAGGSLRLSCAASGSTFYGYTMGWYRQAPGKERELVAAISSSGSSTYYADSVKGRFTISRDNAKNTVYLQMNSLKPEDTAVYYCAAATRVPGHGSTSYYYWGQGTQVTVSS”, which “polyreactivity (PSR sort gate)” value is on record?
The value was “high polyreactivity”.

Which “polyreactivity (PSR sort gate)” value does the source give for “QVQLVESGGGLVQAGGSLRLSCAASGSTFYHNVKGWYRQAPWKERELVASIDTGDSTNYADTVKGRFSISRDNAKKTVYLQMNSLKPEDTAVYYCNADSYPALNKRGYEYWGQGTQVTVSS” here?
Its value is “low polyreactivity”.

With “QVQLVESGGGLVQAGGSLRLSCAASGSTFYHYAMGWYRQAPGKERELVAAISWSGGSTYYADSVKGSFTISRDNAKNTVYLLMYSLKPEDTAVYYCNALLSGLTSTEYDYWGQGTQVTVSS” as the sequence, how does the “polyreactivity (PSR sort gate)” value read?
The value was “high polyreactivity”.

With “QVQLVESGGGLVQAGGSLRLSCAASGSTFYHYTMGWYRQAPGKERELVARISRSGGSTYYADSVKGRFTISRDNAKNTVYLQMNSLKPEDTAGYYCNKGSFYGSSQVGGTGYDYWGQGTQVTVSS” as the sequence, how does the “polyreactivity (PSR sort gate)” value read?
The value was “low polyreactivity”.

For “QVQLVESGGGLVQAGGSLRLSCAASGSTFYHYVMGWYRQAPGKERELGAAISWRGGRTYYADSVKGRFTISRDTAKNTVYLQMNSLKPEDTAVYYCARAYFQPSYYGVEYNYWGQGTQVTVSS”, which “polyreactivity (PSR sort gate)” value is on record?
Its value is “high polyreactivity”.

Which “polyreactivity (PSR sort gate)” value does the source give for “QVQLVESGGGLVQAGGSLRLSCAASGSTFYINAMGWYRQAPGKEREFVAAITSRGGSTYYADSVKGRFTISRDNAKNTVYLQMNSLKPEDTAVYYCAARNFLSRRGTYDYWGQGTQVTVSS” here?
Its value is “high polyreactivity”.

For “QVQLVESGGGLVQAGGSLRLSCAASGSTFYINAMGWYRQAPGKERELVAAISWSTTITYYADSVKGRFTISRDNAKNTVYLQMNSLKPEDTAVYYCAAEEEYWDYSGGGYWGQGTQVTVSS”, which “polyreactivity (PSR sort gate)” value is on record?
The value was “high polyreactivity”.

For “QVQLVESGGGLVQAGGSLRLSCAASGSTFYIYAMGWYRQAPGKERELVAAITSGGNTYYADSVKGRFTISRDNAKNTVYLQMNSLKPEDTAVYYCAAELYDRWSRMDYWGQGTQVTVSS”, which “polyreactivity (PSR sort gate)” value is on record?
The value was “low polyreactivity”.

For “QVQLVESGGGLVQAGGSLRLSCAASGSTFYIYAMGWYRQAPGKERELVAAITWSGGRTFYADSVKGRFTISRDNAKNTVYLHMNSLKPEDTAVYFCSARFWSDKTGSRYYYWGQGTQVTVSS”, which “polyreactivity (PSR sort gate)” value is on record?
Its value is “high polyreactivity”.
